Results reported in patent US7056679B2, “Target specific screening and its use for identifying target binders” (Antyra, Inc., priority 2001, dated 2006).

Legend:
DGI-2 = target: T1, DGI-2 (Homo sapiens, UniProt Q15004); assay: ELISA analysis of phage on DGI-2 polypeptide (specific binding); conditions: for DGI-2 (OD): binding to DGI-2 polypeptide (specific binding), phage ELISA units read at 405 nm; for DGI-2/LDH (OD): ratio of specific binding to non-specific binding
T1 construct: encompassed the entire DGI-2 open reading frame (ORF); His-tag of vector pIVEX2.3-MCS (inferred from the vector and from the reverse primer lacking a stop codon); made in house; host or cells: cell-free in vitro translation (Rapid Translation System RTS, Roche; E. coli lysate)
T1 sequence (Q15004 1-111): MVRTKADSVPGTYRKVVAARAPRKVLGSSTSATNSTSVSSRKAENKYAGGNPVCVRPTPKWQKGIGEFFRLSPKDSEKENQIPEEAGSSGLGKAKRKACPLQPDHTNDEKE
Method: To verify that the selected target binders bound to DGI-2, Elisa assays were performed with recombinant DGI-2. DGI-2 was subcloned and expressed using conventional methods as described below.
Protein yields were satisfactory, but most of protein was found in inclusion bodies. Next, DGI-2 was expressed using an in vitro translation system (Rapid Translation System RTS 5000, Roche Diagnostics GmbH, Mannheim Germany). For this system, the DGI-2 ORF was cloned into the pIVEX2.3-MCS vector (Roche Diagnostics) using restriction sites Nde I and Hind III, which were added to DGI-2 by PCR. […] The primers used for the PCR amplification were as follows: […]
(§1) For analysis of individual target binders, colonies were picked and phage prepared as described above using helper phage, M13KO7. Ninety-six-well microtiter plates were coated with 500 ng/well of specific target protein, 500 ng/well lactate dehydrogenase (LDH) irrelevant or non-specific target, 500 ng/well of positive control antibody raised against ETAG, and negative control of non-fat milk powder-PBS 2% at 4° C. overnight. Plates were then blocked with 350 microliters/well PBS containing 2% non-fat milk for 1 hr at room temperature. One hundred microliters per well of phage from isolated clones were added and plates were incubated at room temperature for 2 hr after centrifuging samples for 20 minutes at 3500 rpm at 4° C. The phage solution was then removed, and the wells were washed three times with PBS at room temperature. Antibody raised against M13 conjugated to horseradish peroxidase (Pharmacia) was diluted 1:3000 in PBS-Tween and added to each well (100 μl/well). Incubation was for 1 hr at room temperature, followed by washing with PBS-(0.5%) Tween 3 times as described. Color was developed by addition of ABTS solution (100 μl/well; Boehringer, Indianapolis, Ind.). Plates were analyzed at 405 nm. A clone was considered “positive” if the A405 of the well was ≧2-fold over background.

E-tag antibody = assay: ELISA analysis of phage on antibody raised against ETAG (positive control); conditions: peptide binding to E-tag antibody; phage ELISA units read at 405 nm
Method: as §1

[1] = test system: lactate dehydrogenase (LDH); assay: ELISA analysis of phage on LDH (irrelevant, non-specific target); assay type: binding; conditions: peptide binding to LDH polypeptide (non-specific binding); phage ELISA units read at 405 nm
Method: as §1

| Substance | DGI-2 (OD) (DGI-2) | DGI-2/LDH (OD) (DGI-2) | ETAG (OD) (E-tag antibody) | LDH (OD) [1] [OD] |
| --- | --- | --- | --- | --- |
| GSTRLRVTVRFCSETGTPGC (DGI-2-20F-PP-G6; listed as Escherichia coli) | 2.7 | 2.5 | 36.1 | 1.1 |
| GSVLERGCLEFSGFCFSLGH (DGI-2-20F-3-C1; listed as Escherichia coli) | 3.4 | 3.4 | 14.0 | 1.0 |
| GVVRAQQGLRYELQGDRYRLRRTQWLTVTYCSPSWAFAGC (DGI-2-40F-3-B116; listed as Escherichia coli) | 1.7 | 2.0 | 6.5 | 0.8 |
| GWGCSVPGILCVGGHRQGGG (DGI-2-20R-3-B11; listed as Escherichia coli) | 5.9 | 5.7 | 16.9 | 1.0 |
| GWSDFVATGSWSGQVSAALN (DGI-2-20R-4-F120; listed as Escherichia coli) | 13.6 | 12.2 | 16.5 | 1.1 |
| HGTRLRGVDYVMTWAGWQGYSSRKHVQQAVAGSSPGSDEL (DGI-2-40F-3-B1; listed as Escherichia coli) | 0.8 | 1.2 | 6.3 | 0.7 |
| HPWVTNMLVFQRPPPPGFWLSDTTPRQRNGLGQVERPSVD (DGI-2-40F-3-C7; listed as Escherichia coli) | 1.2 | 1.5 | 8.8 | 0.8 |
| HSGNRQSGSRRTHLLNIFCSSDTFVFPGWSAYLSRVCPGD (DGI-2-40F-3-B122; listed as Escherichia coli) | 1.7 | 2.2 | 11.0 | 0.8 |
| ISGQVWSSWRFPGWGGKLF (ISGQVWSSWRFPGWGGKF; DGI-2-20R-3-D10; listed as Escherichia coli) | 4.7 | 4.5 | 19.6 | 1.1 |
| KVWGCGARRGWERLGHLNQV (DGI-2-20F-PP-B10; listed as Escherichia coli) | 1.9 | 2.4 | 27.1 | 0.8 |
| LAPMFLQNQVRTWAASRRPLPAGPSNARCETGSLSPWVPC (DGI-2-40F-3-B11; listed as Escherichia coli) | 1.8 | 2.0 | 7.9 | 0.9 |
| LFRFSGTGMASLPCVGWHLV (DGI-2-20F-PP-B6; listed as Escherichia coli) | 2.5 | 2.6 | 37.0 | 1.0 |
| LFSATGCALMSGFCLGSDGS (DGI-2-20R-3-C1; listed as Escherichia coli) | 8.2 | 8.3 | 14.0 | 1.0 |
| LGNASSLWFLRSVQESGVR (LGNASSLIPFLRSVQESGVR; DGI-2-20F-3-C5; listed as Escherichia coli) | 1.0 | 1.0 | 17.7 | 0.9 |
| LGPAHPHGRVCRVSSS#S (LGPAHPHGRVCRVSSSS; DGI-2-20F-PP-B9; listed as Escherichia coli) | 1.9 | 2.7 | 5.0 | 0.7 |
| LGRIVRPCVVRLCGGV##GV (LGRIVRPCVVRLCGGVGV; DGI-2-20F-PP-G10; listed as Escherichia coli) | 2.5 | 2.0 | 30.1 | 1.2 |
| LGRTFVWGTCLHLSVSRFGH (DGI-2-20F-PP-C3; listed as Escherichia coli) | 5.3 | 5.1 | 39.9 | 1.0 |
| LHFGSVMGWRPPGSLWSRPFGQVHPRSWSGS (DGI-2-40F-3-D11; listed as Escherichia coli) | 3.8 | 2.9 | 10.5 | 1.3 |
| LHRLGQSMGGTLDHLQGWGV (DGI-2-20R-4-E5; listed as Escherichia coli) | 1.2 | 1.1 | 17.9 | 1.1 |
| LLLPVRWRDAQPRSLLMEWI (DGI-2-20F-PP-F8; listed as Escherichia coli) | 2.0 | 1.9 | 7.6 | 1.1 |
| LPQSRWLSEAWASWVDGVVD (DGI-2-20F-4-F9; listed as Escherichia coli) | 5.6 | 5.9 | 19.6 | 1.0 |
| LQIVRPAGMTKMPGQVGYYIG (LQIVRPAGWKMPGQVGYYIG; DGI-2-20R-3-A9; listed as Escherichia coli) | 3.4 | 3.4 | 14.3 | 1.0 |
| LSHPMSPLRAASQMALTQGV (DGI-2-20R-4-H7; listed as Escherichia coli) | 3.1 | 2.6 | 14.1 | 1.2 |
| LSLEGGWMWDTKGGDGGSAQ (DGI-2-20R-4-F93; listed as Escherichia coli) | 9.0 | 8.4 | 19.5 | 1.1 |
| LSLLSVVVRSMGASAPQRQV (DGI-2-20F-3-A7; listed as Escherichia coli) | 2.1 | 2.4 | 7.0 | 0.9 |
| LSRIWRGVIESAREVESRGI (DGI-2-20F-3-B1; listed as Escherichia coli) | 1.2 | 1.2 | 11.4 | 0.9 |
| LSVFRPGQFPHVGARGVSRT (DGI-2-20R-4-G32; listed as Escherichia coli) | 1.4 | 1.2 | 11.0 | 1.1 |
| LTPYSLARSWLSGRPSTGAT (DGI-2-20F-3-C12; listed as Escherichia coli) | 3.2 | 3.1 | 15.1 | 1.0 |
| LTWGPQFGSLQVYSRHRGLP (DGI-2-20R-4-E4; listed as Escherichia coli) | 1.6 | 1.3 | 18.1 | 1.2 |
